Experimental data as given in patent US11213590B2, “SSTR-targeted conjugates and particles and formulations thereof” (priority 2016, dated 2022).

Key:
SSTR2 = SSTR2 (Homo sapiens, UniProt P30874); test: Affinity profile (half-maximal inhibitory concentration), SSTR2; format: binding
Text: (§1) DOTATE, also known as DOTA-TATE or DOTA-octreotate, comprises an amide of the acid DOTA, which connects a radionuclide and (Tyr3)-octreotate, a derivative of octreotide. DOTATOC, also known as edotreotide, SMT487, or (DOTA^0-Phe^1-Tyr^3)octreotide, is also an octreotide derivative which can be bound to radionuclides for diagnosis and treatment.

[1] = Pharmacokinetics in patients; format: in vivo; settings: human, venous blood, intravenous; in a patient
Protocol: For C1D1 and C3D1, venous blood samples (4-6 ml) for determination of Conjugate 57, the somatostatin analog peptide component of Conjugate 57 (BT-979), and DM1 (total, unconjugated, and free sulfhydryl) are taken before the start of the infusion, at 0.5 hours (±1 minute) after the start of study drug infusion; precisely at the end of infusion; and 1.5 hours (±5 minutes), 2 hours (±5 minutes), 4 hours (±5 minutes), 6 hours (±5 minutes), 8 hours (±5 minutes), and 10 hours (±5 minutes) after the start of study drug infusion. If the 10 hour time point requires an inpatient admission at the center, the 10 hour time point is not collected. The date and time of collection of each sample are recorded.

SSTR5 = SSTR5 (Homo sapiens, UniProt P35346); test: Affinity profile (half-maximal inhibitory concentration), SSTR5; format: binding
SSTR5, sequence (P35346 whole entry): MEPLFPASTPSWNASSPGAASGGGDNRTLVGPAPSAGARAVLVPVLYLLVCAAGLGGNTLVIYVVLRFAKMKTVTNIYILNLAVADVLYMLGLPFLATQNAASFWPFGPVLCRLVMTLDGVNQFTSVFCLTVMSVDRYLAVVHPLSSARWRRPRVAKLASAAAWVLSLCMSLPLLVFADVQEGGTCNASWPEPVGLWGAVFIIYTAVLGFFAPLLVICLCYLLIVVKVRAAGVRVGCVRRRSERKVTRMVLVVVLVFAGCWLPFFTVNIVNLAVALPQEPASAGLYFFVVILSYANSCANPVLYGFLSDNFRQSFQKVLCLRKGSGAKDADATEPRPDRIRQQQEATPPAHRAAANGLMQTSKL
Text: as §1

SSTR4 = SSTR4 (Homo sapiens, UniProt P31391); test: Affinity profile (half-maximal inhibitory concentration), SSTR4; format: binding
SSTR4, sequence (P31391 whole entry): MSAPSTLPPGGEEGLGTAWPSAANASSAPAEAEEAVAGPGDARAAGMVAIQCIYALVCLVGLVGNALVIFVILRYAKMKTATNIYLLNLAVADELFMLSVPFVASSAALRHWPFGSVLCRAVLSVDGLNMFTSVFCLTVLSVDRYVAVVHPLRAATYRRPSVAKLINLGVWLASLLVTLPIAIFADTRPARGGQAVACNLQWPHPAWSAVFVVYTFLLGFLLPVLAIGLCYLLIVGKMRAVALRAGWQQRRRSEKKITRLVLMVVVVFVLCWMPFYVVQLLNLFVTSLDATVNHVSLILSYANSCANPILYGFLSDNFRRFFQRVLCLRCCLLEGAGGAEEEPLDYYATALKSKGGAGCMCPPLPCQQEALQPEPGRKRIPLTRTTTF
Text: as §1

[2] = Excipient solubility and compatibility testing; format: physicochemical
Protocol: Conjugate 57 is an amphiphilic molecule and therefore tends to self-assemble into large structures. […] Commonly used parenteral surfactant excipients such as Polysorbate 80 (Tween 80) and Polyoxyl 15 Hydroxystearate (solutol, Kolliphor HS 15) were evaluated to re-assemble and stabilize Conjugate 57 into organized micelles. Conjugate 57 is compatible with non-ionic surfactants such as Tween 80 and solutol.

NCI-H69 xenograft = test: NCI-H69 lung xenograft efficacy, formulations and schedules; format: in vivo, mice; settings: for MTV (Mean Tumor Volume): total dose 2.0 mg/kg; for MTV (Mean Tumor Volume) / mice with complete tumor regression: Day 21
Protocol: A further NCI-H69 study design included Conjugate 57 dosed iv at 1.0 mg/kg formulated in propylene glycol (PG), 1.0 mg/kg formulated in Solutol HS15, 0.5 mg/kg formulated in Solutol HS15 dosed twice per week, and 0.33 mg/kg formulated in Solutol HS15 dosed three times per week. A comparator group was dosed with SOC cisplatin dosed iv at 5.0 mg/kg once per week/etoposide dosed ip at 8.0 mg/kg three times per week over two weeks. A negative control vehicle was dosed with the Solutol HS 15 vehicle. All groups contained 10 animals.

[3] = Buffer screening for solution stability; format: physicochemical; settings: acetate buffer versus citrate and phosphate buffers; pH range of 4.0 to 4.8
Text: Conjugate 57 is a free flowing powder. The formulation development of Conjugate 57 was accomplished by screening conditions that would provide stability and tonicity to the drug product solution. […] The buffer is formed by a combination of sodium acetate and acetic acid. In summary, acetate buffer, a commonly used parenteral buffer, is used to dissolve Conjugate 57 and ensure stability at a pH range of 4.0 to 4.8.

SSTR1 = SSTR1 (Homo sapiens, UniProt P30872); test: Affinity profile (half-maximal inhibitory concentration), SSTR1; format: binding
SSTR1, sequence (P30872 whole entry): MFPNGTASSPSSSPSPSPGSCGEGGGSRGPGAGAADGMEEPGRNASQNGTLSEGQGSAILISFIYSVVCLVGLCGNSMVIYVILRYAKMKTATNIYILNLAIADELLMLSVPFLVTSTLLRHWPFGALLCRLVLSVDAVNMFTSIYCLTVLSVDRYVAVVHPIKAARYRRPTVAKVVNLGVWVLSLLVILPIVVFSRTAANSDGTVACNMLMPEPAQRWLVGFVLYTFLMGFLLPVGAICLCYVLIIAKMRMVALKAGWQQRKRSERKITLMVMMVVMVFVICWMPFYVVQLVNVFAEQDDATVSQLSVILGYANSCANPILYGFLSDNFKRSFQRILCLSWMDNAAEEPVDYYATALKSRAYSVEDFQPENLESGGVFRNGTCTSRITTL
Text: as §1

[4] = In vivo cardiovascular and respiratory evaluation; parameters: species or system beagle dog
Protocol: This study was conducted to evaluate the potential cardiovascular and respiratory effects of Conjugate 57 in conscious freely moving naïve male beagle dogs.
Assessments of cardiovascular and respiratory effects and general toxicity were based on mortality, clinical observations, body weight, body temperature, cardiovascular evaluations, i.e., blood pressure (systolic, diastolic, and mean arterial pressures), heart rate, the ECG (QRS duration and the RR, PR, QT, and Corrected QT [QTc] intervals), and respiratory evaluations (respiratory rate, tidal volume, and minute volume). The animals were monitored continuously for at least 2 hours prior to dosing and for 24 hours post dose.

[5] = 0.16 mg/kg iv, segment 1 (>0 to 0.25 hours post dose)
[6] = 0.16 mg/kg iv, segment 2 (>0.25 to 6 hours post dose)
[7] = 0.16 mg/kg iv, segment 3 (>6 to 24 hours post dose)
[8] = 0.20 mg/kg iv, segment 1 (>0 to 0.25 hours post dose)
[9] = 0.20 mg/kg iv, segment 2 (>0.25 to 6 hours post dose)
[10] = 0.20 mg/kg iv, segment 3 (>6 to 24 hours post dose)
[11] = 0.24 mg/kg iv, segment 1 (>0 to 0.25 hours post dose)
[12] = 0.24 mg/kg iv, segment 2 (>0.25 to 6 hours post dose)
[13] = 0.24 mg/kg iv, segment 3 (>6 to 24 hours post dose)

SSTR2, sequence (P30874 whole entry): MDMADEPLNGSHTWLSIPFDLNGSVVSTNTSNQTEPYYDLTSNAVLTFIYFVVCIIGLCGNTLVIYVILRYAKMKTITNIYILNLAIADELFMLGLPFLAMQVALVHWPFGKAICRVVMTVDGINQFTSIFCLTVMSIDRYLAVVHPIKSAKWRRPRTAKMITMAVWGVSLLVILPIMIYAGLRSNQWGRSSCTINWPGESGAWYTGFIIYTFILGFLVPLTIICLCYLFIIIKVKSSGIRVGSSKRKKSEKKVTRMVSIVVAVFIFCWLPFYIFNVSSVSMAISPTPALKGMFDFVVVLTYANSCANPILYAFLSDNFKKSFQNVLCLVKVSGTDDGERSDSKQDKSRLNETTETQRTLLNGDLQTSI

SMILES: COc1cc2cc(c1Cl)N(C)C(=O)C[C@H](OC(=O)[C@H](C)N(C)C(=O)CCSSC[C@H](NC(=O)[C@@H]1CSSC[C@H](NC(=O)[C@H](N)Cc3ccccc3)C(=O)N[C@@H](Cc3ccc(O)cc3)C(=O)N[C@H](Cc3c[nH]c4ccccc34)C(=O)N[C@@H](CCCCN)C(=O)N[C@@H]([C@@H](C)O)C(=O)N1)C(N)=O)[C@]1(C)O[C@H]1[C@H](C)[C@@H]1C[C@@](O)(NC(=O)O1)[C@H](OC)/C=C/C=C(\C)C2 [Conjugate 57]
- IC50 (SSTR2): 0.042 nM
- half-life [1]: ~1.8 h
- IC50 (SSTR5): 24 nM
- IC50 (SSTR4): > 1000 nM
- solubility ([2]; in saline): < 1000 µg/mL
- excipient compatibility ([2]; non-ionic surfactants such as Tween 80 and solutol): compatible
- excipient compatibility ([2]; tocophersolan (TPGS), super refined PEG 300, PEG 400, ethanol, dextrose, or Pluronics F68): not compatible
- MTV (Mean Tumor Volume) (NCI-H69 xenograft; 0.33 mg/kg iv in Solutol HS15, 3 doses per week): 330 mm3
- mice with complete tumor regression (NCI-H69 xenograft; 0.33 mg/kg three times per week in Solutol HS15): no mice having complete tumor regressions
- MTV (Mean Tumor Volume) (NCI-H69 xenograft; 0.5 mg/kg iv in Solutol HS15, 2 doses per week): 105 mm3
- mice with complete tumor regression (NCI-H69 xenograft; 0.5 mg/kg twice weekly in Solutol HS15, 10 animals): 1/10
- mice with complete tumor regression (NCI-H69 xenograft; 1.0 mg/kg in PG, 10 animals): 2/10
- mice with complete tumor regression (NCI-H69 xenograft; 1.0 mg/kg in Solutol HS15, 10 animals): 3/10
- MTV (Mean Tumor Volume) (NCI-H69 xenograft; 1.0 mg/kg iv in PG, 1 dose per week): 178 mm3
- MTV (Mean Tumor Volume) (NCI-H69 xenograft; 1.0 mg/kg iv in Solutol HS15, 1 dose per week): 55 mm3
- adverse effects with health observations (NCI-H69 xenograft; NCI-H69 xenograft): No adverse effects
- weight loss (NCI-H69 xenograft; NCI-H69 xenograft, all Conjugate 57 groups): No weight loss
- solution stability by buffer [3]: most stability
- IC50 (SSTR1): 380 nM
- Diastolic Blood Pressure, overall segment mean [4, 5]: 100.8 ± 4.1
- Mean Arterial Blood Pressure, overall segment mean [4, 5]: 124.0 ± 4.8
- Systolic Blood Pressure, overall segment mean [4, 5]: 162.8 ± 5.7
- Diastolic Blood Pressure, overall segment mean [4, 6]: 102.7 ± 1.5
- Mean Arterial Blood Pressure, overall segment mean [4, 6]: 128.6 ± 2.0
- Systolic Blood Pressure, overall segment mean [4, 6]: 172.2 ± 2.9
- Diastolic Blood Pressure, overall segment mean [4, 7]: 99.6 ± 1.9
- Mean Arterial Blood Pressure, overall segment mean [4, 7]: 125.7 ± 2.2
- Systolic Blood Pressure, overall segment mean [4, 7]: 169.2 ± 3.1
- Diastolic Blood Pressure, overall segment mean [4, 8]: 99.8 ± 4.2
- Mean Arterial Blood Pressure, overall segment mean [4, 8]: 122.7 ± 4.9
- Systolic Blood Pressure, overall segment mean [4, 8]: 161.1 ± 5.9
- Diastolic Blood Pressure, overall segment mean [4, 9]: 97.7 ± 1.5
- Mean Arterial Blood Pressure, overall segment mean [4, 9]: 122.6 ± 2.1
- Systolic Blood Pressure, overall segment mean [4, 9]: 165.7 ± 3.0
- Diastolic Blood Pressure, overall segment mean [4, 10]: 93.8 ± 1.9
- Mean Arterial Blood Pressure, overall segment mean [4, 10]: 119.4 ± 2.2
- Systolic Blood Pressure, overall segment mean [4, 10]: 163.4 ± 3.2
- Diastolic Blood Pressure, overall segment mean [4, 11]: 112.0 ± 4.1
- Mean Arterial Blood Pressure, overall segment mean [4, 11]: 138.7 ± 4.8
- Systolic Blood Pressure, overall segment mean [4, 11]: 182.0 ± 5.7
- Diastolic Blood Pressure, overall segment mean [4, 12]: 104.1 ± 1.5
- Mean Arterial Blood Pressure, overall segment mean [4, 12]: 129.8 ± 2.0
- Systolic Blood Pressure, overall segment mean [4, 12]: 176.3 ± 2.9
- Diastolic Blood Pressure, overall segment mean [4, 13]: 97.1 ± 1.9
- Mean Arterial Blood Pressure, overall segment mean [4, 13]: 123.5 ± 2.2
- Systolic Blood Pressure, overall segment mean [4, 13]: 171.1 ± 3.1
- blood pressure, heart rate and respiratory rate ([4]; 0.24 mg/kg, from dosing through 1.5 to 2 hours following dosing): statistically significant increases
- effects on QRS duration, ECG morphology, or tidal volume ([4]; any dose level tested): no test article-related effects
- adverse effects on cardiovascular or respiratory function ([4]; iv, male beagle dogs, doses up to and including 0.24 mg/kg): no adverse effects
- tolerability, clinical observations, mortality ([4]; single iv infusion over 6 minutes, 0.16, 0.20 and 0.24 mg/kg, male beagle dogs): generally well tolerated
